In PMC7083937, “The ribosome-associated complex RAC serves in a relay that directs nascent chains to Ssb” (Nature Communications, 2020):
No end group written: not given here. fluorescein = fluorescein (N-terminal label)

Tests used:
ScSsz1-Zuo1N complex = molecular target: T1, ScSsz1-Zuo1N complex (Saccharomyces cerevisiae, UniProt P32527+P38788); test: fluorescence anisotropy peptide binding; conditions: N-terminally fluorescein-labelled peptide, 40 nM mixed 1:1 with protein, pH 7.5, 200 mM KCl, 30 min, room temperature, Ssz1-Zuo1N
T1 construct: His6-SUMO (N); made in house
T1 sequence (P38788 1-538): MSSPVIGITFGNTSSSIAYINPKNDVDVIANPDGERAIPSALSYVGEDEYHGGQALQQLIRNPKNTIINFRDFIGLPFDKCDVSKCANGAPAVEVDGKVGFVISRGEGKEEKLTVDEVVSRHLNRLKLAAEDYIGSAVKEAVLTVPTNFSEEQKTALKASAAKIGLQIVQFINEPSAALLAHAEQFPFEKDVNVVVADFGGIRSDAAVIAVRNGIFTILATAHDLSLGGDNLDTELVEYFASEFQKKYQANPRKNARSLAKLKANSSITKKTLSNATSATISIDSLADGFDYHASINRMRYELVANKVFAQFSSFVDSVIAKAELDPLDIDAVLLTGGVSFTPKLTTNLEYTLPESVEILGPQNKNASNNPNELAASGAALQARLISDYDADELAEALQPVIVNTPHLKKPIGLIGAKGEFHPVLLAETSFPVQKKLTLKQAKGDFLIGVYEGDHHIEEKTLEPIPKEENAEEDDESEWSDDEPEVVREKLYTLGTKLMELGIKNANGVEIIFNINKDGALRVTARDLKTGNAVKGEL
T1 sequence (P32527 1-50 partner): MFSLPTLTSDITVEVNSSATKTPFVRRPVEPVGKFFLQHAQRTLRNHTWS
Method: (§1) 1 µM BSA was added to prevent unspecific binding of the fluorescently labelled peptide to the microplate (Greiner Bio-One opaque 384 well plate). Fluorescence anisotropy measurements were performed using the LP-peptide (MFSLPTL) or the NR-peptide (NRLLLTG) labelled at the N terminus with fluorescein (Peptide Specialty Laboratories GmbH, Heidelberg). Two-fold serial dilutions of each protein (ScSsz1-Zuo1N or ScSsz1-Zuo1NΔLP) were mixed in a 1:1 ratio with 40 nM peptides in anisotropy buffer in 384-well opaque plates (Greiner Bio One) and were incubated at room temperature for 30 min. Measurements were performed in triplicate using a plate reader (SpectraMax M5e Multi Mode Microplate reader, Molecular Devices). To determine the binding constant (KD) the data were fitted to a one-site binding equation using Python[57].
(§2) Ssz1-Zuo1NΔLP Ssz1-Zuo1NΔLP
(§3) Supplementary Figure 6. Figure S6
(§4) An al ysi s o f su b strate b in di ng to ScRAC co re vari ants b y fl uo rescen ce an i so trop y.
(§5) (a) Binding curves of the fluorescently labeled LP-pept ide or (b ) NR-peptide to Ssz1-Zuo1N (circle) or
(§6) Ssz1-Zuo1NDLP (square) are shown. The mean and standard deviation from three technical replicates
(§7) is indicated. Source data are provided as a Source Data file.

ATP-bound DnaK = conditions: read-out: affinity for ATP-bound DnaK, low-affinity state; cited from earlier work
ScSsz1-Zuo1NΔLP complex = molecular target: T2, ScSsz1-Zuo1NΔLP complex (Saccharomyces cerevisiae, UniProt P32527+P38788); type: binding; conditions: fluorescence anisotropy; N-terminally fluorescein-labelled peptide, 40 nM mixed 1:1 with protein; pH 7.5, 200 mM KCl; 30 min, room temperature; Ssz1-Zuo1NΔLP
T2 construct: His6-SUMO (N); made in house
Method: as §1, §2, §3, §4, §5, §6, §7

Zuo1-ΔN8 = test: peptide competition with nascent chain crosslinking (XL-Zuo1); type: biochemical, Saccharomyces cerevisiae; conditions: RNCs Pgk1-100, RAC-ΔN8, Δssb; peptide added prior to 400 µM BS3 crosslinking, 5 or 50 µM
Text: Fig. 3 Nascent chain binding to the Ssz1-SBD is modulated by the N-terminus of Zuo1. a Amino acid sequence of the ScZuo1N. Arrows indicate the positions of truncations in Zuo1-ΔN8, Zuo1-ΔN16, and Zuo1-ΔN49. The color code is as in Fig. 2a. The secondary structure derived from the crystal structure is depicted above. b The Zuo1N LP-motif interferes with the contact of nascent Pgk1-100 with Zuo1 and Ssz1. Ribosome-free extracts obtained from Δssb1Δssb2 (Zuo1, Ssz1), Δssb1Δssb2 RAC-ΔN8 (ΔN8, Ssz1), or Δssb1Δssb2 RAC-ΔN16 (ΔN16, Ssz1) strains (upper panel) were added to RNCs from Δssb1Δssb2Δzuo1Δssz1 translation extract prior to crosslinking. Crosslink products between Zuo1 and nascent Pgk1-100 (XL-Zuo1) and Ssz1 and nascent Pgk1-100 (XL-Ssz1), respectively. c, d Quantification of crosslinking between nascent Pgk1-100 and Zuo1 (c) and Ssz1 (d). Autoradiographs as shown in (b) were employed for the quantification of nascent Pgk1-100 and the crosslink products XL-Zuo1 and XL-Ssz1. Values were normalized as described in Methods. The efficiency of crosslinking is given as a percentage of nascent Pgk1-100 present in the reaction. […]
(§8) Chemical crosslinking of ribosome-bound nascent chains to Ssb, Zuo1, or Ssz1 was analyzed essentially as described. […] Samples were analyzed on Tris-Tricine gels[56] followed by autoradiography. […]

Ssz1 in RAC-ΔN8 = test: peptide competition with nascent chain crosslinking (XL-Ssz1); type: biochemical, Saccharomyces cerevisiae
Text: Fig. 3 Nascent chain binding to the Ssz1-SBD is modulated by the N-terminus of Zuo1. a Amino acid sequence of the ScZuo1N. Arrows indicate the positions of truncations in Zuo1-ΔN8, Zuo1-ΔN16, and Zuo1-ΔN49. The color code is as in Fig. 2a. The secondary structure derived from the crystal structure is depicted above. b The Zuo1N LP-motif interferes with the contact of nascent Pgk1-100 with Zuo1 and Ssz1. Ribosome-free extracts obtained from Δssb1Δssb2 (Zuo1, Ssz1), Δssb1Δssb2 RAC-ΔN8 (ΔN8, Ssz1), or Δssb1Δssb2 RAC-ΔN16 (ΔN16, Ssz1) strains (upper panel) were added to RNCs from Δssb1Δssb2Δzuo1Δssz1 translation extract prior to crosslinking. Crosslink products between Zuo1 and nascent Pgk1-100 (XL-Zuo1) and Ssz1 and nascent Pgk1-100 (XL-Ssz1), respectively. c, d Quantification of crosslinking between nascent Pgk1-100 and Zuo1 (c) and Ssz1 (d). Autoradiographs as shown in (b) were employed for the quantification of nascent Pgk1-100 and the crosslink products XL-Zuo1 and XL-Ssz1. Values were normalized as described in Methods. The efficiency of crosslinking is given as a percentage of nascent Pgk1-100 present in the reaction. Experiments were performed in triplicate, with the exception of the XL-Zuo1-ΔN8 (shown in c), which was performed only once. Shown is the mean (bars) and the result of each biologically independent experiment (dots). Error bars indicate the standard deviation of the mean. e Crosslinking of the nascent chain to Ssz1 requires a functional peptide binding groove. Ribosome-free extracts from Δssb1Δssb2 RAC-ΔN8 (Zuo1-ΔN8, Ssz1) or Δssb1Δssb2 RACmut-ΔN8 (Zuo1-ΔN8, Ssz1mut) (upper panel) was added to RNCs generated in Δssb1Δssb2Δzuo1Δssz1 translation extract as described in Fig. 1b. […] RNCs were generated in a Δssb1Δssb2Δzuo1Δssz1 translation extract and ribosome-free extract from Δssb1Δssb2 RAC-ΔN8 (Zuo1-ΔN8, Ssz1) was added. […]
as §8

[1] = molecular target: T3, ScSsz1-Zuo1NΔLP complex (ScSsz1 with ScZuo1NΔLP residues 10-50) (S. cerevisiae, UniProt P38788 1-538; P32527 10-50); test: nanoDSF; melting temperature of the complex with or without LP-peptide; 20 mM Hepes/KOH pH 7.5, 200 mM KCl, 5 mM MgCl2, 1 mM DTT; 20 to 90 °C at 1.5 °C/min; conditions: both partners purified
T3 construct: Ssz1, S. cerevisiae; Zuo1, S. cerevisiae, residues 10-50, lacking the LP-motif (ScZuo1NΔLP); residues of the 3C site may be left on Zuo1NΔLP; not shown: His6-MBP, N-terminal, cleaved
T3 sequence (looked up) 1: T1 sequence (P38788 1-538)
T3 sequence (looked up) 2: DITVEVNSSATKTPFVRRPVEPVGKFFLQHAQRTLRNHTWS

[2] = molecular target: T3, ScSsz1-Zuo1NΔLP complex (ScSsz1 with …); test: fluorescence polarisation; fluorescence anisotropy; two-fold serial dilutions of the protein complex mixed 1:1 with 40 nM fluorescein peptide; 20 mM Hepes/KOH pH 7.5, 200 mM KCl, 5 mM MgCl2, 1 mM DTT, 1 µM BSA; room temperature, 30 min; one-site binding fit; affinity called estimated; conditions: both partners purified
[3] = nanoDSF thermal stability of RAC core complexes; type: physicochemical, Saccharomyces cerevisiae; conditions: 20 mM Hepes/KOH pH 7.5, 200 mM KCl, 5 mM MgCl2, 1 mM DTT, 20 to 90 °C at 1.5 °C/min, 330/350 nm, no peptide, three measurements shown
Method: (§9) The melting temperature of ScSsz1-Zuo1N, ScSsz1-Zuo1NΔLP or ScSsz1mut-Zuo1NΔLP with or without the LP-peptide (Peptide Specialty Laboratories GmbH, Heidelberg) were determined using the Prometheus NT.48 nanoDSF system using nano-DSF grade capillaries (NanoTemper Technologies GmbH). The measurements were performed in 20 mM Hepes/KOH pH 7.5, 200 mM KCl, 5 mM MgCl2, 1 mM DTT. The LP-peptide, which was dissolved in DMSO, was pre-diluted in the above buffer such that the final DMSO concentration in the experiment was below 0.5%. DMSO diluted in the same way was added to the negative control. Intrinsic protein fluorescence was measured continuously at 330 nm and 350 nm with a temperature gradient ranging from 20 to 90 °C at a rate of 1.5 °C/min. […]
(§10) (a-b) NanoDSF analysis of Ssz1-Zuo1N (blue) and Ssz1-Zuo1NDLP (orange) in a and Ssz1-Zuo1NDLP wit hout t he LP-pept ide (orange) or wit h t he LP-pept ide (blue) in b. Three measurements are shown.
(§11) Source data are provided as a Source Dat a f ile.
(§12) (c) Residues (L439S/K440P/I448F/G495K) mutated in Ssz1mut to block substrate binding to Ssz1-SBDb (cyan) are in stick representation (upper panel). Zuo1N is shown in orange a nd the LP-motif in yellow. Multiple sequence alignment of Hsp70 homologs (lower panel) wit h the mutations highlighted in yellow. The alignment is colored as in Fig. 2a. […]

ScSsz1-Zuo1NΔLP = test: nanoDSF melting temperature with/without LP-peptide; type: binding, Saccharomyces cerevisiae; conditions: DMSO negative control (<0.5%), pH 7.5, 200 mM KCl, 20 to 90 °C at 1.5 °C/min, three measurements shown
Method: as §9, §10, §11, §12

Molecule: NRLLLTG [NR-peptide, NRLLLTG peptide, serves as an Hsp70 model substrate]
- affinity (ScSsz1-Zuo1N complex): below the detection limit
- Kd (ATP-bound DnaK): 23.8 ± 3.8 µM
- affinity (ScSsz1-Zuo1NΔLP complex): below the detection limit
- effect on nascent chain crosslinking to Zuo1-ΔN8 (XL-Zuo1) (Zuo1-ΔN8): Neither of the peptides added prior to the crosslinking reaction affected nascent chain crosslinking to Zuo1-ΔN8
- displacement of nascent chain (Ssz1 in RAC-ΔN8; 50 µM peptide, ribosome-bound nascent chain): partly displaced
- effect on nascent chain crosslinking to Ssz1 (XL-Ssz1) (Ssz1 in RAC-ΔN8; RNCs Pgk1-100, RAC-ΔN8, Δssb, peptide added prior to 400 µM BS3 crosslinking, 5 or 50 µM): to a lesser extent also NR-peptide, significantly reduced crosslinking of the nascent chain to Ssz1
- displacement compared with LP-peptide (Ssz1 in RAC-ΔN8; ribosome-bound nascent chain, 50 µM peptide): significantly lower

B1: LP-peptide (MFSLPTL, ScZuo1 residues 1-7), free peptide (peptide)
peptide: MFSLPTL
notes: LP-motif of Zuo1, S. cerevisiae, residues 1-7; source: synthetic peptide (Peptide Specialty Laboratories GmbH, Heidelberg)
- binding result [1]: binds

B2: LP-peptide (MFSLPTL) labelled at the N terminus with fluorescein (peptide)
peptide: fluorescein-MFSLPTL
notes: as for B1
- Kd [2]: 11.9 ± 4 µM

B3: Ssz1-Zuo1NΔLP: ScSsz1 with ScZuo1NΔLP (residues 10-50) lacking the LP-motif (protein)
chain 1: T1 sequence (P38788 1-538)
chain 2: T3 sequence (looked up) 2
modifications: left off: His6-SUMO, N-terminal, state not stated | His6-MBP, N-terminal, cleaved
notes: ScSsz1 with ScZuo1NΔLP (residues 10-50) lacking the LP-motif
- melting temperature (thermal stability of RAC core complex) [3]: 39.7 °C
- melting temperature of Ssz1-Zuo1NΔLP without LP-peptide (ScSsz1-Zuo1NΔLP): 40.3 °C
